# Measurements from patent publication US20100273722A1, “MODIFIED MINIATURE PROTEINS” (Yale University, priority 2007, published 2010).
# Target: Down-regulated Hck kinase (containing an N-terminal His6 tag)
# Assay: cell-based or functional assay
substance,measurement,value
HIV Nef protein,"Activity (nmol · sec^-1), activator at 50 micromolar (nmol · sec^-1)",232
same,"Fold-Activation, activator at 50 micromolar",21 fold
